Source: patent publication US20210221899A1 (published 2021)
Substitutions are numbered along the chain they refer to.

T1: canine NGF (canine, UniProt Q29074 110-229 (pig entry), limits assumed)
T1 construct: The protein was secreted from CHO cells and purified; also called cNGF; canine β-NGF
T1 chain: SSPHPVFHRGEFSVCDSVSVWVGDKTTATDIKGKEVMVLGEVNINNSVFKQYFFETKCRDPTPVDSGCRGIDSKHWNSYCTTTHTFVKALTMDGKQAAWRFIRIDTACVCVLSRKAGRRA

T2: human NGF (human, UniProt P01138 122-241)
T2 construct: also called human Nerve Growth Factor; hN
T2 chain: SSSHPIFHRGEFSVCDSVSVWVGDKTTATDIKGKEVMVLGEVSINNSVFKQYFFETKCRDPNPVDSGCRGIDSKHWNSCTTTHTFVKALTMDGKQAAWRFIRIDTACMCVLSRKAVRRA

B1: ZTS-841 (antibody, V domains shown)
VH: EVQLVESGGDLVKPGGSLRLSCVASGFTFSSHGMHWVRQSPGKGLQWVAVINSGGSSTYYTDAVKGRFTISRDNAKNTVYLQMNSLRAEDTAMYYCAKESVGGWEQLVGPHFDYWGQGTLVIVSS
VL: QSVLTQPTSVSGSLGQRVTISCSGSTNNIGILGASWYQLFPGKAPKLLVYGNGNRPSGVPDRFSGADSGDSVTLTITGLQAEDEADYYCQSFDTTLGAHVFGGGTHLTVL
notes: Canine mAb; also called 9L12; can9L12
B2: ZTS-842 (antibody, V domains shown)
VH: EVQLVESGGDLVKPGGSLRLSCVASGFTFSTYGINWVRQAPGKGLQWVAYISSGGSSTYYADPVKGRFTISRDDAKNMLYLQMNSLRAEDTAIYYCAGSRYTYAYGGGYEFHFWGQGTLVTVSS
VL: QAVLNQPASVSGALGQKVTISCSGSTMDIDIFGVSWYQQLPGKAPKLLVDSDGDRPSGIPDRFSGSRSGNSGTLTITGLQAEDEADYHCQSGDSTLGALAIFGGGTHVTVL
notes: Canine mAb; also called 48L2; can48L2
B3: ZTS-205 (antibody, V domains shown)
VH: B2 VH with E1D, S21T, D74N, S85N, R87K, A88T, I93T
VL: QAVLNQPSSVSGALGQRVTISCSGSTMDIDIFGVSWYQQIPGMAPKTIIDSDGDRPSGVPDRFSGSKSGSTGTLTITGLQAEDEADYYCQSGDSTLGALAIFGGGTHVTVLG
notes: Felinized 48L2; also called fel48L2 1.1; fel48L21.1
B4: humanized mAb can9L12VH_HM855939 / can9L12VL (antibody, V domains shown)
VH: QVQLVESGGGVVQPGGSLRLSCAASGFTFSSHGMHWVRQAPGKGLEWVSVINSGGSSTYYADSVKGRFTISRDNSKNTLYLQMNSLRAEDTAVYYCAKESVGGWEQLVGPHFDYWGQGTLVIVSS
VL: B1 VL
B5: humanized mAb can9L12VH_X92218 / can9L12VL (antibody, V domains shown)
VH: B4 VH with Q1E, V11L, H35S
VL: B1 VL
B6: humanized mAb can9L12VH / can9L12VL_M94116_65698 (antibody, V domains shown)
VH: B1 VH
VL: QSVLTQPTSVSGAPGQRVTISCTGSTNNIGILGVHWYQQLPGTAPKLLIYGNGNRPSGVPDRFSGADSGDSVSLAITGLQAEDEADYYCQSFDTTLGAHVFGGGTHLTVL
B7: humanized mAb can48L2VH_HM855323.1 / can48L2VL_Z22192.1 (antibody, V domains shown)
VH: B2 VH with D10G, V23A, Q46E, A49S, P63S, D74N, M78S, I93V
VL: QSVVTQPPSVSGAPGQRVTISCTGSTMDIDIFGVSWYQQLPGTAPKLLIYGDGDRPSGVPDRFSGSKSGASASLAITGLQAEDEADYHCQSGDSTLGALAIFGGGTHVTVL
B8: humanized mAb can48L2VH_HM855323.1 / can48L2VL_Z22192.1_P8A (antibody, V domains shown)
VH: B2 VH with D10G, V23A, Q46E, A49S, P63S, D74N, M78S, I93V
VL: B7 VL with P8A
B9: humanized mAb can48L2VH_HM855323.1 / can48L2VL_Z22192.1_P14L (antibody, V domains shown)
VH: B2 VH with D10G, V23A, Q46E, A49S, P63S, D74N, M78S, I93V
VL: B7 VL with P14L
B10: humanized mAb can48L2VH_HM855336.1 / can48L2VL_Z22192.1 (antibody, V domains shown)
VH: EVQLVESGGGLVQPGGSLRLSCAASGFTFSTYGMNWVRQAPGKGLEWVSYISSGGSSIYYADSVKGRFTISRDNAKNSLYLQMNSLRAEDTAVYYCAGSRYTYAYGGGYEFHFWGQGTLVTVSS
VL: B7 VL
B11: humanized mAb can48L2VH_HM855336.1 / can48L2VL_Z22192.1_P8A (antibody, V domains shown)
VH: B10 VH
VL: B7 VL with P8A
B12: humanized mAb can48L2VH_HM855336.1 / can48L2VL_Z22192.1_P14L (antibody, V domains shown)
VH: B10 VH
VL: B7 VL with P14L

What was measured:
canine NGF = biological target: T1, canine NGF; test: SPR (Biacore), NGF amine-coupled on chip, antibody injected
Experimental: (§1) Antibody binding affinities of the antibodies against canine NGF were determined by surface plasmon resonance (SPR) on a Biacore system (Biocore Life Sciences (GE Healthcare), Uppsala, Sweden). Immobilization of canine and rat NGF were obtained by amine coupling […] NGF using N-hydroxysuccinimide (NHS)/1-Ethyl-3-(3-dimethylaminopropyl) carbodiimide (EDC) chemistry. Chips were quenched with ethanolamine and the affinity with which all candidate mAbs bound to the immobilized NGF was evaluated. Various concentrations of canine and felinized anti-NGF antibodies were injected over the NGF surfaces while the association of the antibody to the antigen and the dissociation of the formed complex were monitored in real time. Kinetic analysis was performed to obtain the equilibrium dissociation constant (KD).

rat NGF = biological target: T3, rat NGF (rat, UniProt P25427 122-241); test: as above
T3 construct: also called rN
T3 sequence (P25427 122-241 limits assumed): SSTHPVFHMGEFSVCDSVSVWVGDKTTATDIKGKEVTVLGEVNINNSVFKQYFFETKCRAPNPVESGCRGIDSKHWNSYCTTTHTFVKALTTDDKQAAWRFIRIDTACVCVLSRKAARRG
Experimental: as §1

human NGF = biological target: T2, human NGF; test: SPR (Biacore), human NGF amine-coupled on chip, antibody injected
Experimental: Antibody binding affinities of the antibodies against human NGF (SEQ ID NO.66) were determined by surface plasmon resonance (SPR). Human NGF was immobilized on the surface of a BIACORE chip by direct amine coupling. Various concentrations of the described humanized anti-NGF antibodies were injected over the human NGF surfaces while the association of the antibody to the antigen and the dissociation of the formed complex were monitored in real time. Kinetic analysis was performed to obtain the equilibrium dissociation constant (KD).

| Binder | Kd (canine NGF) [pM] | koff (canine NGF) [s⁻¹] | kon (canine NGF) [M⁻¹ s⁻¹] | Kd (rat NGF) [pM] | koff (rat NGF) [s⁻¹] | kon (rat NGF) [M⁻¹ s⁻¹] | Kd (human NGF) [pM] | koff (human NGF) [s⁻¹] | kon (human NGF) [M⁻¹ s⁻¹] |
| --- | --- | --- | --- | --- | --- | --- | --- | --- | --- |
| B1 | 50.6 | 2.36e-05 | 527000 | 108 | 4.61e-05 | 587000 |  |  |  |
| B2 | 21.7 | 2.27e-05 | 703000 | 3.25 | 1.42e-06 | 573000 |  |  |  |
| B3 | 111 | 8.93e-05 | 426000 | 277 | 0.00029 | 672000 |  |  |  |
| B4 |  |  |  |  |  |  | 4120 | 0.00161 | 390000 |
| B5 |  |  |  |  |  |  | 126 | 3.78e-05 | 301000 |
| B6 |  |  |  |  |  |  | 9190 | 0.00197 | 214000 |
| B7 |  |  |  |  |  |  | 1540 | 0.000256 | 167000 |
| B8 |  |  |  |  |  |  | 1540 | 0.000315 | 205000 |
| B9 |  |  |  |  |  |  | 1.02 | 1.46e-07 | 144000 |
| B10 |  |  |  |  |  |  | 1250 | 0.000337 | 269000 |
| B11 |  |  |  |  |  |  | 841 | 0.000212 | 252000 |
| B12 |  |  |  |  |  |  | 1490 | 0.000422 | 283000 |
